# Assay results published in US20250027068.
# Substitutions are numbered along the chain they refer to.
# B1: PRT-437 (protein)
# chain: MSQTEDSESLQRLRDIEDFQAEKKKQNVVYTKWLDGVDVKDHDFRKIVDGNEAYYATPLLNGRGFYDINKDFNRDSDKCAAAVAANMFHYWLDRNRDNVDRFLRQNPEKHGIIELPDGQLKLSDFLNTYESDDGYRDKSKLFDFISNNFNGPVWTDKLLDNYINGYAYNYKYGRTIEDPTKNTSKINFFKEVFNEKILTNNHSIRNQNEFSVLLSEALYTGKAIGLSYGPAGLRHSLGHIISVWGADLDADGNVVAIYVTDSDDKKLTIGDERVGLKRYKISTDDEGRLRLTAYEETHNTGGQIRGLWTLDTGKQAWADYFDKTEQTGTDQAEQ
# B2: PRT-383 (protein)
# chain: MVTSVWTKGVTPPTNFTYGEDVLHAPYVANQGWYDITKTFNGKDDLLCGAATAGNMLHWWFDQNKEQIENYLKKHPEKQKINFNGEQMFDVKEAIDTKDSQLDSKLFDYFKEKAFPYLSTKHLGVFPDHVIDMFINGYRLSLTNHGPTPVKRGSKDPRGGIFDAVFTRGDQSKLLTNRHDFKEKTLKEISDLIKQELTEGKALGISHTYANVRINHVINLWGADFDAEGNLEAIYVTDSDSNASIGMKKYFVGVNSNGKVAISAKEIEEDNIGAQVLGLFTLSTGQDIWNQTN
# B3: PRT-391 (protein)
# chain: B2 chain with D108E, P157K
# B4: PRT-399 (protein)
# chain: MVTSVWTKGVTPPADFTQGEDVFHAPYVANQGWYDITKTFNGKDDLLCGAATAGNMLHWWFDQNKEYIEAYLKKHPEKQKIMFGDQELLDVRKAINTKGSQKNSELFNYFRDKAFPNLSARRLGVMPDLVLDMFINGYYLNVTKTQTTDVNRTYQEKDKRGGIFDAVFTRGDQSKLLTSRHDFKEKGLKEISDLIKQELTEGKALGLSHTYANVRINHVINLWGADFDSDGNLKAIYVTDSDSNASIGMKKYVVGVNSAGKVAISAKEIKEDNIGAQVLGLFTLSTGQDIWNQTN
# B5: PRT-407 (protein)
# chain: B4 chain with M82I, V253F
# Target: pooled human IgG (human IgG1, 2, 3 and 4)
Protein,Enzyme Activity Endpoint Assay (purified): Fab′2 [ng/µL],Enzyme Activity Endpoint Assay (purified): Fc [ng/µL],Enzyme Activity Endpoint Assay (purified): IgG [ng/µL],Enzyme Activity Endpoint Assay (purified): scIgG [ng/µL],Enzyme Activity Endpoint Assay: Fab′2 [ng/µL],Enzyme Activity Endpoint Assay: Fc [ng/µL],Enzyme Activity Endpoint Assay: IgG [ng/µL],Enzyme Activity Endpoint Assay: scIgG [ng/µL]
B1,445,306,0,263,445,306,0,263
B2,581,379,0,230,581,379,0,230
B3,498,361,29,192,498,361,29,192
B4,0,0,1580,0,0,0,1580,0
B5,209,277,90,396,209,277,90,396
